Laboratory results as given in patent US10874712B2, “Methods, compounds and compositions for modulating blood brain barrier integrity and re-myelination” (University Health Network, priority 2015, dated 2020).
Entries after “also recorded” stand apart in the source; their conditions may differ.

T1: Neogenin (Homo sapiens, UniProt Q92859)
T1 construct: His-tagged proteins (2.5 μg/mL of extracellular-Neogenin or sRGMa or sRGMc) were then coated onto each well; His tag (coated format); Alkaline phosphatase (AP) fusion (solution format, Ec-Neogenin-AP); made in house
T1 sequence (Q92859 34-1105 limits assumed): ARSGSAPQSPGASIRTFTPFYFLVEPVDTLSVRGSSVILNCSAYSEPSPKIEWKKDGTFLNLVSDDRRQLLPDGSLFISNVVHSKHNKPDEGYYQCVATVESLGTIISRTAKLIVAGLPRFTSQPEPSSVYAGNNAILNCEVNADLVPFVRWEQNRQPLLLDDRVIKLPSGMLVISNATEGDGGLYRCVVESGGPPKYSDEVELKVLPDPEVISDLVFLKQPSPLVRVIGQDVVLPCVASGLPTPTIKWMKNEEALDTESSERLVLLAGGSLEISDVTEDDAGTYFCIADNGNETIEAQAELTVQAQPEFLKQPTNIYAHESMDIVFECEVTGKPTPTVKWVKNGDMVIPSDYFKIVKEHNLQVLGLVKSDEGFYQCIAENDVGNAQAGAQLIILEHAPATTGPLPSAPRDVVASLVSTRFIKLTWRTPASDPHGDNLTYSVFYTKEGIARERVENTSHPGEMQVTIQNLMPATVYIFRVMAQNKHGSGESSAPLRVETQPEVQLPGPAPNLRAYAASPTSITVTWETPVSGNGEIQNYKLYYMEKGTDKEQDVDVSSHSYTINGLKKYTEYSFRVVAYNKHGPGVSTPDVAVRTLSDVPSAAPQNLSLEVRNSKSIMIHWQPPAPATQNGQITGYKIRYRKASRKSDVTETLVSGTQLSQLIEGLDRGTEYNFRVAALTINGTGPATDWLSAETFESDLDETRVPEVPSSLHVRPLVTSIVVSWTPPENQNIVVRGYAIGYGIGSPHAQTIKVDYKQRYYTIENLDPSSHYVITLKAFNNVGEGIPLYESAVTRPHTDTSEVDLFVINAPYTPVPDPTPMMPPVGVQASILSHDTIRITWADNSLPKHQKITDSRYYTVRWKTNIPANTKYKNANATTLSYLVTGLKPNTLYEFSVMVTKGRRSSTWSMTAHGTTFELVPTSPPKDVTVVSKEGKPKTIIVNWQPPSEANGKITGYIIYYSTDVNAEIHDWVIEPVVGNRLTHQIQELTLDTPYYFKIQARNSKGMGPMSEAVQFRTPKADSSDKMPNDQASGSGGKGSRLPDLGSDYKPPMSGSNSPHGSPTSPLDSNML

B1: sRGMa: mouse RGMa cloned with His tag replacing the GPI-anchor, secreted soluble protein (protein)
chain: PHLRTFTDHFQTCKVQGAWPLIDNNYLNVQVTNTPVLPGSAATATSKLTIIFKNFQECVDQKVYQAEMDELPSAFADGSKNGGDKHGANSLKITEKVSGQHVEIQAKYIGTTIVVRQVGRYLTFAVRMPEEVVNAVEDRDSQGLYLCLRGCPLNQQIDFQAFRANAESPRRPAAASPSPVVPETFPYETAVAKCKEKLPVEDLYYQACVFDLLTTGDVNFTLAAYYALEDGKMLHSNKDKLHLFERTRELPGAVAAAA
modifications: left off: large carriers
notes: mouse RGMa cloned with His tag replacing the GPI-anchor, secreted soluble protein

Columns and labels:
b.end3 cells = experiment: In vitro BBB permeability, Dextran-FITC extravasation in Boyden chamber; assay type: cell-based, mouse; conditions: b.end3 monolayer; for extravasation of Dextran-FITC in sRGMa-treated cells: 4 h pre-treatment (10 μg/mL sRGMc, 10 μg/mL C3 Transferase or 10 μM Y27632), then RGMa 18 h
Method: (A) Neogenin expression was analyzed on the membrane of b.end3 cells using immunohistochemical staining and by Western blot. (B) Crystal violet staining showing the b.end3 cell monolayer, (C) Representative diagram of the boyden chamber set up and (D) BBB permeability in b.end3 cells. Serum-starved cells were incubated for 4 h with RGMa (10 μg/ml), C3 Transferase (10 μg/mL) or Y27632 (10 μM) or sRGMc (10 μg/mL) and were then incubated with sRGMa (5 μg/mL) for 18 h followed by seeding of Dextran-FITC onto the upper chamber. Extravasation was measured over a period of 60 min as described in the Examples. n=3, performed in triplicates.
b.End3 endothelial cells were used to generate an in vitro model of the human EC barrier lining the choroid plexus. Briefly, b.end3 cells were plated on polyethylene-coated 0.4 μm pore size Boyden chambers (Corning) at a density of 2×10^5 cells per well in DMEM, and were allowed to grow for 72 h to reach confluency (verified using crystal violet staining). After 72 h, cells were serum starved for 6 h and pre-treated for 4 h with 10 μg/mL sRGMc, 10 μg/mL C3 Transferase or 10 μM Y27632. RGMa was then added to the wells for 18 h. The transwells were then transferred to a new plate containing 500 μl of HBSS and 200 μl 4-KDa Dextran-FITC (25 mg/ml; Sigma-Aldrich) was added to the upper chambers. Tracer diffusion across the EC monolayer was assessed in 30 min intervals for a period of 1.5 h. FITC signal, which represented the amount of extravasation through the monolayer was analyzed with using a microplate reader.

Neogenin = biological target: T1, Neogenin; experiment: In vitro competition binding assay (AP-tagged proteins); conditions: pre-incubation of sRGMa with Ec-Neogenin-AP; compared to BSA control
Method: (C) Binding of Neogenin to bovine serum albumin (Neogenin+BSA), to RGMa (Neogenin+RGMa), and to RGMc (Neogenin+RGMc) in RGMa-AP and in RGMc-AP. Constructs overexpressing His-tagged sRGMa, sRGMc and the extracellular domains of Neogenin (Ec-Neogenin) were coated onto Poly-L-Lysine coated wells. Alkaline Phosphatase (AP)-tagged proteins (EC-Neogenin or RGMa or RGMc) were then added to each well and incubated at 37° C. for 1 h. Each well was washed and equilibrated with AP developing buffer (100 mM NaHCO3, 1 mM MgCl2). The reaction was initiated using AP developing buffer supplemented with p-nitrophenyl phosphate and then stopped following color development by adding 50 μl (0.1M) NaOH. The absorbance of each reaction was measured using a microplate autoreader at 405 nm as described in the Examples. (D) Binding of Neogenin-AP to bovine serum albumin (Neogenin-AP+BSA), to RGMa (Neogenin-AP+RGMa), and to RGMc (Neogenin-AP+RGMc). Competition assay was performed as described in the Examples and above but in which the constructs were reversed.
Using a 96-well microtiter plate (Corning), wells coated with 100 μl (10 μg/mL) of Poly-L-Lysine (Sigma-Aldrich) incubated at 4° C. overnight were then washed 3× with 100 μl of PBST (+0.02% Tween-20). […] The absorbance of each reaction was measured using a microplate autoreader (BioTek EL311 AutoReader) at 405 nm.

[1] = tested on: blood brain barrier of mice; experiment: BBB permeability, Texas red dye leakage by widefield imaging; assay type: in vivo, mouse; conditions: mice injected with RGMa alone; vs vehicle
Method: Mice were treated with RGMa (70 ug), RGMa (70 ug)+RGMc (70 ug), or Vehicle (1% BSA) 18 h prior to widefield imaging (100-300 ms exposure) prior to and following intravenous injection of Texas Red dye (0.5 mg) over time. […] (B) Quantification of the leakage of Texas Red dye (measured as the number of leakage sites/mm^2).
BBB integrity was assessed in mice treated with PBS (Vehicle), RGMa, RGMc, RGMa+ immunoglobulin domain of Neogenin (4Ig). Widefield imaging was then carried out under a Olympus microscope (BX6 1WI) prior to and following the injection of Texas red dye (100 uL, I.V., 5 mg/ml) using 100-300 ms exposure. Recording was performed from 0 min to 35 min following injection. Texas dye leakage was also assessed in RGMc knockout (KO) and wild type (WT) mice. The leakage of Texas-red dye was quantified by a blind experimenter measuring the number of leakage sites/mm^2. (A) Representative images of Texas red dye: PBS (Vehicle), RGMa, RGMa+RGMc and RGMa+4Ig (immunoglobulin domain of Neogenin). Quantification of the leakage of Texas Red dye in animals treated with (B) PBS (Vehicle), RGMa or RGMa+RGMc or in RGMc KO and WT mice or (C) PBS (Vehicle), RGMa, RGMa+RGMc or RGMa+4Ig.
Mice injected with BSA, RGMc, RGMa, or RGMa+RGMc. […] Leakage of Texas red dye was quantified by a blind experimenter measuring the number of leakage sites/mm^2. […]

[2] = tested on: Claudin 5 in b.End3 cells; experiment: Claudin 5 expression in endothelial cells by Western blot; assay type: cell-based, mouse; conditions: incubation with RGM proteins
Method: Cells were pretreated for 6 h with PBS, RGMc, RGMa or RGMc+RGMa. Western blotting was performed on the lysates with Claudin-5 and GAPDH antibodies.
Next, the BBB permeability was assessed by injecting mice with BSA, RGMa, RGMa plus RGMc and subsequently followed by assessment of Texas dye leakage using widefield imaging as an indication of BBB integrity. […] Thus, Claudin 5 expression following RGMa/c treatments of murine-derived brain endothelial cells (b.End3) was studied. B.En3 cells were grown up to 80% confluency and were treated with overnight incubation with RGM proteins.

reduction of binding intensity of RGMc to Neogenin (Neogenin) [fold] | Molecule | extravasation of Dextran-FITC in sRGMa-treated cells (b.end3 cells) | extravasation of Dextran-FITC (b.end3 cells; sRGMa alone, vs vehicle-treated wells) | BBB integrity, leakage of Texas Red dye [1] | reduction in Claudin 5 levels [2] [fold]
– | C[C@@H](N)[C@H]1CC[C@H](C(=O)Nc2ccncc2)CC1 [Y27632, reference compound] | reduced | – | – | –
– | C3 Transferase [reference compound] | reduced | – | – | –
3 | B1 | – | increased | significantly disrupted BBB integrity; also recorded: significantly elevated leakage | 2
